Residue numbers refer to the chain shown, from its start.
B1: “converted” BMP-1-3 protein (protein)
chain: AATSRPERVWPDGVIPFVIGGNFTGSQRAVFRQAMRHWEKHTCVTFLERTDEDSYIVFTYRPCGCCSYVGRRGGGPQAISIGKNCDKFGIVVHELGHVVGFWHEHTRPDRDRHVSIVRENIQPGQEYNFLKMEPQEVESLGETYDFDSIMHYARNTFSRGIFLDTIVPKYEVNGVKPPIGQRTRLSKGDIAQARKLYKCPACGETLQDSTGNFSSPEYPNGYSAHMHCVWRISVTPGEKIILNFTSLDLYRSRLCWYDYVEVRDGFWRKAPLRGRFCGSKLPEPIVSTDSRLWVEFRSSSNWVGKGFFAVYEAICGGDVKKDYGHIQSPNYPDDYRPSKVCIWRIQVSEGFHVGLTFQSFEIERHDSCAYDYLEVRDGHSESSTLIGRYCGYEKPDDIKSTSSRLWLKFVSDGSINKAGFAVNFFKEVDECSRPNRGGCEQRCLNTLGSYKCSCDPGYELAPDKRRCEAACGGFLTKLNGSITSPGWPKEYPPNKNCIWQLVAPTQYRISLQFDFFETEGNDVCKYDFVEVRSGLTADSKLHGKFCGSEKPEVITSQYNNMRVEFKSDNTVSKKGFKAHFFSDKDECSKDNGGCQQDCVNTFGSYECQCRSGFVLHDNKHDCKEAGCDHKVTSTSGTITSPNWPDKYPSKKECTWAISSTPGHRVKLTFMEMDIESQPECAYDHLEVFDGRDAKAPVLGRFCGSKKPEPVLATGSRMFLRFYSDNSVQRKGFQASHATECGGQVRADVKTKDLYSHAQFGDNNYPGGVDCEWVIVAEEGYGVELVFQTFEVEEETDCGYDYMELFDGYDSTAPRLGRYCGSGPPEEVYSAGDSVLVKFHSDDTITKKGFHLRYTSTKFQDTLHSRK
B2: placental BMP-1-3 protein (protein)
chain: B1 chain with L373Q

Row | Protein | in vitro processing (enzyme activity) (calmodulin, P0DP23) | in vitro processing (enzyme activity) (type IV collagen)
1 | B1 | which properties were not exhibited with the “converted” BMP-1-3 protein | which properties were not exhibited with the “converted” BMP-1-3 protein
2 | B2 | processed calmodulin and type IV collagen | processed calmodulin and type IV collagen
